“Also recorded” adds a separate entry of the source.
B1: IFN-α1: Recombinant Interferon-α1, a type I IFN, injected intraperitoneally 3 times weekly at 10^5 IU/dose (protein, UniProt P01562 24-189, looked up)
Interferon alpha-1/13: CDLPETHSLDNRRTLMLLAQMSRISPSSCLMDRHDFGFPQEEFDGNQFQKAPAISVLHELIQQIFNLFTTKDSSAAWDEDLLDKFCTELYQQLNDLEACVMQEERVGETPLMNADSILAVKKYFRRITLYLTEKKYSPCAWEVVRAEIMRSLSLSTNLQERLRRKE

Tests used:
4T1.2 tumours [1] = assay: 4T1.2 tumour bearing mice treated with poly I:C (bioluminescence imaging, Q-PCR of tumour burden); format: in vivo
Procedure: Mice bearing 4T1.2 cells were treated with 25 ug poly I:C 3× weekly by tail vein injection beginning at day 3. (a) Bioluminescence imaging of 4T1.2 primary tumour burden prior to surgical resection (b) Bioluminescence imaging of metastatic burden in mice treated with vehicle or poly I:C (c) Q-PCR detection of 4T1.2 tumour burden in femur, spine and lung of mice at day 33.
These techniques have previously been described by Eckhardt and colleagues (Eckhardt 2005). Briefly, mice were inoculated with 10^5 cells into the 4th mammary fatpad of female 6-8 week old Balb/c mice. Tumour volumes were monitored by caliper measurement 3 times weekly. […] Metastatic burden in secondary tissues was detected by a Q-PCR based assay using a reporter sequence inserted into the genome of the 4T1.2 cells. Survival assays were conducted in the same way except at day 22 the mice were anaesthetized using either a combination of ketamine hydrochloride (1.2 m/g of mouse)/xylaxil hydrochloride (3 μg/g of mouse) or 2.5% aerosol isoflurane in 100% oxygen and the primary tumour was surgically removed and weighed. […] At time of sacrifice, all mice had evidence of bone and lung metastasis unless otherwise stated. Anti-CD8 (clone 53-6.7, produced in house) and the control antibody rat IgG2a (clone 2A3, produced in house) were injected intraperitoneally at 50 μg per dose on days −1, 0, 1, 4, 7 and subsequently every 7 d. Rabbit anti-asialo GM1 was purchased from Wako chemicals and injected intraperitoneally according to the manufacturer's instructions.

4T1.2 tumours [2] = assay: Early treatment setting after primary tumour resection: poly I:C, doxorubicin or combination (bioluminescence imaging); format: in vivo, Balb/c mice; conditions: treatment from 2 days after resection for 2 weeks; 25 ug poly I:C every 2 days, 4 mg/kg doxorubicin every 4 days; bioluminescence (FIG. 21)
Procedure: 4T1.2 cells were inoculated into the 4th mammary gland of Balb/c mice. Primary tumours were resected when they reached 0.2 g and 2 days later treatment was started for a period of 2 weeks. Mice were treated with vehicle alone, 25 ug poly I:C every 2 days, 4 mg/kg doxorubicin every 4 days, or the combination of poly I:C and doxorubicin. Metastatic burden was visualised in all mice at a set time point using bioluminescence imaging.

4T1.2 cells [3] = assay: In vitro proliferation of 4T1.2 cells (sulforhodamine B binding assay); format: cell-based, mouse; conditions: 1000 IU/mL recombinant IFN-α1 (FIG. 6b)
Text: (§1) FIG. 6: The effect of type I IFN treatment on metastasis. (a) Real-time RT-PCR analysis of 4T1.2 cells treated with […] recombinant IFN-α1. (n=3, * p<0.05, error bars are S.E.M.). (b) Proliferation of 4T1.2 cells treated with 1000 IU/mL of recombinant […]. (n=6, error bars are S.E.M.). (c) Primary tumour volume, n=15. (d) Q-PCR detection of metastatic 4T1.2 tumour burden in spine (at day 33 post tumour cell inoculation) of mice treated with IFNα1 or vehicle. (e) H&E stained sections of spines and femurs from 4T1.2 bearing mice treated with IFN-α1 or vehicle (Scale bar=50 T=Tumour). (f) Kaplan-Meier disease-free survival analysis of mice bearing 4T1.2 tumours that were subsequently resected. Mice were treated with 10^5 IU of recombinant IFN-α1 or saline from day 3. (n=15).
66cl4 and 4T1 cell lines were kindly provided by Dr. Fred Miller (Karmanos Cancer Institute, Detroit, Mich.). Derivation of the 4T1.2 line has previously been described (Eckhardt et al. 2005, supra; Lelekakis et al. 1999, supra). Recombinant Interferon-α1 was used at a dose of 1000 IU/mL. […] MDSCs were assessed using Ly6G (clone IA8) and CD11b (clone M1/70) specific antibodies (BD Pharmingen, Franklin Lakes, N.J., USA) at a dilution of 1:200. […] In vitro proliferation was assessed using a sulforhodamine B binding assay as previously described (Eckhardt et al. 2005, supra). […]

4T1.2 tumours [4] = assay: Mouse metastasis assay, 4T1.2 mammary tumours, IFN-α1 treatment; format: in vivo, Balb/c mice
Text: as §1
Female Balb/c mice (6-8 weeks old) were obtained from ARC (Perth, WA, Australia) or Walter and Eliza Hall Institute (Kew, Vic, Australia) breeding facilities. Female NSG mice were obtained from WEHI breeding facility under license from The Jackson Laboratory and Balb/c Ifnar1^−/− (Hwang et al. 1995, supra) were bred in-house. Recombinant IFN-α1 was injected intraperitoneally 3 times weekly at a dose of 10^5 IU/dose. All other mouse assays were performed using standard techniques. Metastasis was assessed using a previously described assay (Eckhardt et al. 2005, supra). Mouse investigations were performed with the approval of the Peter MacCallum Animal Ethics Experimentation Committee.
(§2) These techniques have previously been described by Eckhardt and colleagues (Eckhardt 2005). Briefly, mice were inoculated with 10^5 cells into the 4th mammary fatpad of female 6-8 week old Balb/c mice. Tumour volumes were monitored by caliper measurement 3 times weekly. […] Metastatic burden in secondary tissues was detected by a Q-PCR based assay using a reporter sequence inserted into the genome of the 4T1.2 cells. […]

4T1.2 cells [5] = assay: Real-time RT-PCR of 4T1.2 cells treated with recombinant IFN-α1; format: cell-based, mouse; conditions: 4T1.2 cells in vitro, recombinant IFN-α1 1000 IU/mL, real-time RT-PCR (FIG. 6a)
Text: as §1
66cl4 and 4T1 cell lines were kindly provided by Dr. Fred Miller (Karmanos Cancer Institute, Detroit, Mich.). Derivation of the 4T1.2 line has previously been described (Eckhardt et al. 2005, supra; Lelekakis et al. 1999, supra). Recombinant Interferon-α1 was used at a dose of 1000 IU/mL. Interferon-α receptor blocking antibody (MAR1-5A3) was used at a concentration of 10 μg/mL (Leinco, St Louis, Mo.). G-CSF ELISA was performed according to manufacturer's instructions (R&D Systems, Minneapolis, Minn., USA). Flow cytometry was performed using standard techniques. MDSCs were assessed using Ly6G (clone IA8) and CD11b (clone M1/70) specific antibodies (BD Pharmingen, Franklin Lakes, N.J., USA) at a dilution of 1:200. Flow Cytometry was performed using an LSR-II (BD Pharmingen, San Jose, Calif.). Real-time RT-PCR was performed using standard techniques. In vitro proliferation was assessed using a sulforhodamine B binding assay as previously described (Eckhardt et al. 2005, supra). […]
Expression level of each gene was calculated based on the cycle threshold (CT), set within the linear range of DNA amplification. Expression level (arbitrary units) was calculated as relative transcript abundance (RTA) by: RTA=10000/(2^ΔCT), where ΔCT=CT (gene of interest)−CT(GAPDH).

4T1.2 tumours [6] = assay: Metastasis-free survival assay with primary tumour resection, IFN-α1 treatment; format: in vivo, Balb/c mice
Text: as §1
Female Balb/c mice (6-8 weeks old) were obtained from ARC (Perth, WA, Australia) or Walter and Eliza Hall Institute (Kew, Vic, Australia) breeding facilities. […] Metastasis was assessed using a previously described assay (Eckhardt et al. 2005, supra). […]
as §2, with “Briefly, mice were inoculated with 10^5 cells into the 4th mammary fatpad of female 6-8 week old Balb/c mice.” left out

[7] = system: 4T1.2 tumour bearing mice; assay: Immune cell populations (flow cytometry) and G-CSF (ELISA) in 4T1.2 tumour bearing mice treated with IFN-α1; format: in vivo, Balb/c mice
Procedure: FIG. 18: Measurement of MDSC and G-CSF in blood of 4T1.2 tumour bearing mice treated with IFNα1. Mice were treated with IFN-al or saline control one day after 4T1.2 tumour cell inoculation into the mammary gland. Five days after tumour inoculation, MDSC percentage (a) and absolute numbers (b) were measured, along with G-CSF levels by ELISA (c).
FIG. 19: Changes in immune cells in the mammary gland, lung and bone. a) Mice were treated with IFN-α1 or saline control on day 1, 3 and 5 after 4T1.2 tumour cell inoculation into the mammary gland. Ten days after tumour inoculation MDSC, NK, CD4^+ and CD8^+ T cell percentages were measured in fatpad/primary tumour, lung and bone marrow. N=5. Difference between treatment groups was assessed using an unpaired T test and significance is indicated. b) Cells isolated from the mammary gland, lung and bone marrow of naïve Balb/c mice were stained for DX5, TCR, CD11b and CD27. Shown are representative profiles for CD11b and CD27 expression on gated DX5^+TCR. Percentage of CD11b^low/high and/or CD27^low/high are indicated.
66cl4 and 4T1 cell lines were kindly provided by Dr. Fred Miller (Karmanos Cancer Institute, Detroit, Mich.). Derivation of the 4T1.2 line has previously been described (Eckhardt et al. 2005, supra; Lelekakis et al. 1999, supra). Recombinant Interferon-α1 was used at a dose of 1000 IU/mL. Interferon-α receptor blocking antibody (MAR1-5A3) was used at a concentration of 10 μg/mL (Leinco, St Louis, Mo.). G-CSF ELISA was performed according to manufacturer's instructions (R&D Systems, Minneapolis, Minn., USA). Flow cytometry was performed using standard techniques. MDSCs were assessed using Ly6G (clone IA8) and CD11b (clone M1/70) specific antibodies (BD Pharmingen, Franklin Lakes, N.J., USA) at a dilution of 1:200. Flow Cytometry was performed using an LSR-II (BD Pharmingen, San Jose, Calif.). Real-time RT-PCR was performed using standard techniques. In vitro proliferation was assessed using a sulforhodamine B binding assay as previously described (Eckhardt et al. 2005, supra). Immunohistochemistry was performed using standard techniques, using α-mouse Irf7 (Zymed/Invitrogen, Carlsbad, Calif., USA) α-human Irf7 (BD Pharmingen, Franklin Lakes, N.J., USA) at a concentration of 5 μg/mL.

[8] = IFN-α1 on day 1, 3 and 5, measured ten days after tumour inoculation (FIG. 19a)

Molecule | primary tumour growth (4T1.2 tumours [1]; 25 ug poly I:C 3x weekly by tail vein injection from day 3, bioluminescence imaging (FIG. 20a)) | metastatic burden in lung and bone (4T1.2 tumours [1]; 25 ug poly I:C 3x weekly, PCR detection of tumour cell markers at day 33 (FIG. 20c)) | metastasis to multiple organs (4T1.2 tumours [1]; 25 ug poly I:C 3x weekly, bioluminescence after primary tumour resection (FIG. 20b)) | metastasis at end point (4T1.2 tumours [2]) | 4T1.2 cell proliferation in vitro (4T1.2 cells [3]) | metastasis to the spine and femur (4T1.2 tumours [4]; 10^5 IU/dose i.p. 3 times weekly, Q-PCR at day 33 and H&E, vs vehicle, P<0.007 (FIG. 6d, e)) | extent of metastasis to lung (4T1.2 tumours [4]; 10^5 IU/dose i.p. 3 times weekly, Q-PCR, endpoint day 33 (FIG. 17)) | primary tumour growth in vivo (4T1.2 tumours [4]; 10^5 IU/dose intraperitoneally 3 times weekly (FIG. 6c)) | expression of Irf7 (4T1.2 cells [5]) | expression of Irf9 (4T1.2 cells [5]) | expression of STAT1 (4T1.2 cells [5]) | metastasis-free survival (4T1.2 tumours [6]; 10^5 IU recombinant IFN-α1 or saline for five weeks, primary tumour resection at 3 weeks (FIG. 6f)) | growth of primary tumours (4T1.2 tumours [6]; survival study, treatment for five weeks, primary tumour resection at 3 weeks) | G-CSF levels in the peripheral blood ([7]; 4T1.2 tumour bearing mice, IFN-α1 vs saline, ELISA (FIG. 18c)) | MDSC accumulation in the peripheral blood ([7]; 4T1.2 tumour bearing mice, IFN-α1 vs saline, five days after tumour inoculation (FIG. 18), listed as IFN) | CD11b+Ly6G+ MDSC in the bone marrow [7, 8] | NK cells at the primary site or in lungs [7, 8] | NK cells in the bone marrow [7, 8]
poly I:C | did not alter | significant decrease | suppressed metastasis to multiple organs; also recorded: suppresses metastasis | did not significantly impact metastasis | – | – | – | – | – | – | – | – | – | – | – | – | – | –
COc1cccc2c1C(=O)c1c(O)c3c(c(O)c1C2=O)C[C@@](O)(C(=O)CO)C[C@@H]3O[C@H]1C[C@H](N)[C@H](O)[C@H](C)O1 [doxorubicin] | – | – | – | did not significantly impact metastasis | – | – | – | – | – | – | – | – | – | – | – | – | – | –
B1 | – | – | – | – | did not affect | significantly reduced metastasis to the spine and femur to undetectable levels | not reduced | did not affect | increased expression | increased expression | increased expression | significant extension | no effect | decreased | significantly decreased | significantly decreased | not observed | significantly increased

Reference: patent US10441636B2, “Method of diagnosis and treatment” (LA TROBE UNIVERSITY, priority 2012, dated 2019)
